# Reference: patent US20260116991A1 (HAINAN SIMCERE ZAIMING PHARMACEUTICAL, published 2026)
# Where a chain is given by its changes, count along the chain named.
# T1: polypeptide GC3pep (human)
# T1 construct: also called membrane proximal polypeptide GC3pep
# T1 peptide: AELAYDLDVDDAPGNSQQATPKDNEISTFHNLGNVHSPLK
# B1: F1.9.19 (antibody, human IgG1, kappa, V domains shown)
# VH: DVQLQESGPGLVKPSQSLSLTCSVTGYSITSGYYWNWIRQFPGNRLEWMAYISYDGINNYNPSLKNRISIARDTSTNQFFLKLNSVTSEDTATYYCATTTEVALFDHWGQGTTLTVSS
# VL: DVLLTQTPLSLPVSLGDQASISCRSSQNIVHGNGNTYLEWFLQKPGQSPKLLIYKVSNRFSGVPDRFSGSGSGTDFTLKISRVEAEDLGLYYCFQASHVPWTFGGGTKLEIKR
# notes: human-murine chimeric antibody
# B2: F2.154.1 (antibody, human IgG1, kappa, V domains shown)
# VH: QVQLQQSGAELVRPGASVKLSCKASGYRFTDYEMHWVKQTPVHGLEWIGTIDPETGNTAYTQKFMDKATLTADKSSSTAYMELRSLTSEDSAVYYCTRGYSFTYWGQGTLATVSA
# VL: B1 VL with L4M, G32S, E39Q, F41Y, Y54F, L90V, A96G, W101F, G105T
# notes: as for B1
# B3: F2.169.2 (antibody, human IgG1, kappa, V domains shown)
# VH: EVQLVETGGGLVQPKGSLKLSCAASGFSFNTNAMNWVRQAPGKGLEWVARIRSKSNNYATYYADSVKDRFTISRDDSQSMLYLQMNNLKTEDTAMYYCVRDGYYVLFAYWGQGTLVTVSA
# VL: B1 VL with L4M, S25F, N28S, H31N, G32S, L90V, A96G, W101F, G105T
# notes: as for B1
# B4: F2.152.3 (antibody, human IgG1, kappa, V domains shown)
# VH: EVQLQQSGPELVKPGASVKMSCKASGYTFTDYYMTWVKQSHGKSLEWIGRVNPRNGDTTYNQKFEGRATLTLDKSLSTAFMQLNSLTSEDSAVYYCINSKGHFDYWGQGTTLTVSS
# VL: B1 VL with L4M, N28S, G32S, L51S, L90V, A96G, W101P, G105A, I111L
# notes: as for B1
# B5: F3.38.7 (antibody, human IgG1, kappa, V domains shown)
# VH: QVQLQQSGAELVRPGASVKLSCKASGYTFTDYEIHWVKQTPVLGLEWIGAIDPKTGNTAYNQKFMGKATLTADKSSTTAYMDLRSLTSEDSAVYYCTRYFSFAYWGQGTLVTVSA
# VL: B1 VL with L4M, N28T, I29F, G32S, E39Q, F41Y, L90V, A96G, W101Y, G105S
# notes: as for B1
# B6: F1.136.7 (antibody, human IgG1, kappa, V domains shown)
# VH: EVQLQQSGPVMVKPGPSVKISCQTSGFTFTDYYIHWVKQSHGKSLEWIGLVFPYDGGTNYNQKFKDKATLTLDTSSSTAYMELNSLTSEDSAVYYCARAGGFSYALNYWGQGTSVTVSS
# VL: DIQMTQSPSSLSASLGGKVTITCKASQDINNYIAWYQHKPGKGPRLLIHFTSTLQPGIPSRFSGSGSGRDYSFSISNLEPEDIATYYCLQYDNLLLTFGAGTKLELKR
# notes: as for B1
# B7: F1.120.16 (antibody, human IgG1, kappa, V domains shown)
# VH: EFQLQQSGPELVKPGASVKISCKASGYSFTDYNMNWVKQSNGKSLEWIGLIHPKFSVTSYNRKFKGKATLTVDQSSSTAYMQLNSLTSEDSAVYYCARWAGDYFDYWGQGTTLTVSS
# VL: DIVLTQSPATLSVTPGDSVSLSCRASQSISNNLHWYQQKSHESPRLLIKYASQSISGIPSRFSGSGSGTDFTLTINSVETEDFGMYFCQQSNSWPQTFGGGTKLEIKR
# notes: as for B1
# B8: F1.118.4 (antibody, human IgG1, kappa, V domains shown)
# VH: QVQLQQSGAELAKPGASVKLSCKASGYSFTSYWIHWVKQRPGQGLEWIGYINPSSGYTKYNQKFKDKATLTADKSSSTAYMQLSSLTYEDSAVYYCARFGSSSFYFDYWGQGTTLTVSS
# VL: DIVLTQSPASLAVSLGQRATISCRASQSVSSSSYSYMHWYQQKPGQPPKLLIKYASNLDSGVPARFSGSGSGTDFTLNIHPVEEEDTATYYCQHSWEIPAFGGGTKLEIKR
# notes: as for B1
# B9: F1.62.9 (antibody, human IgG1, kappa, V domains shown)
# VH: QVQLQQSDAELVKPGASVKISCKVSGYIFTDHTIHWMKQRPEQGLEWIGYIYPRDGSIKYNENFKGKATLTADKSSSATYMQLNSLTSEDSAVYFCARPIYYDYAYYFDYWGQGTTLTVSS
# VL: DVVMTQSPLSLPVSLGDQASISCRSRQSLVHSNGNTYLHWYLQKPGQSPKVLIYKVSNRFSGVPDRFSGSGSGTDFTLKISRVEAEDLGVYFCSQSTHVPYTFGGGTKLEIKR
# notes: as for B1
# B10: F3.54.12 (antibody, human IgG1, kappa, V domains shown)
# VH: QVQLQQSGAELVRPGASVKLSCKASGYTFTDYEMHWVKQTPVHGLEWIGAIDPETGNTAYIQKFKGKATLTTDKSSSTAYMELRSLTSEDSAVYYCTRFYSYSHWGQGTTLTVSS
# VL: B9 VL with S7T, R26S, V51L, G71S, S96N, Y101P
# notes: as for B1
# B11: F2.23.8 (antibody, human IgG1, kappa, V domains shown)
# VH: B2 VH with R28T, I48F, T50A, N57G, T61N, M65R, D66A, G99F, T103A, A111V
# VL: B9 VL with S7T, R26S, H39Q, V51L, S81T, G105S
# notes: as for B1
# B12: F2.92.1 (antibody, human IgG1, kappa, V domains shown)
# VH: QVQLQQSGAELVRPGASVKLSCKASGYIFSDYEIHWVKQTPVHGLECIGAVDPETGGTAYNQKFKGKATLTADKSSSTAYMELRSLTSEDSAVYFCTRFYSFAYWGQGTLVTVST
# VL: B9 VL with S7T, A19G, R26S, H39Q, V51L, S94C, P100L, Y101P
# notes: as for B1
# B13: F2.39.2 (antibody, human IgG1, kappa, V domains shown)
# VH: QVQLQQSGAELVRPGASVKVSCKASGYTFTDYEMHWMKQTPVHGLEWIGANEPETGRSAYDQKFKGKATLTADKSSSTAYMELRSLTSEDSAVYYCTRFYSFAYWGQGTLVTVSA
# VL: B9 VL with S7T, R26S, S28G, S32N, V51L, S96N, Y101P
# notes: as for B1
# B14: F2.55.11 (antibody, human IgG1, kappa, V domains shown)
# VH: EVKLVESGGGLVKPGGSLKLSCAASGLTFSTCTMSWVRQTPAKRLEWVATISSGGGNTYYPDSVKGRFTISRDNARNTLYLQMSSLRSEDTAMYYCVRLYYDGSPYAMDYWGQGTSVTVSS
# VL: DIQMTQTTSSLSASLGDRVTISCRASQDISNHLNWYQQKPDGTVKLLIYYTSRLHSGVPSRFSGSGSGTDYSLTISNLEQEDIATYFCQQDSKPPPTFGSGTKLEIKR
# notes: as for B1
# B15: F1.3.9 (antibody, human IgG1, kappa, V domains shown)
# VH: QVQLQQPGTELVKPGASVKLSCKASGYTFTSYWIHWVKQRPGQGLEWIGNINPPNAGTNYNEKFKSKATLTVDKSSSTAYMQLSSLTSEDSAVYYCARGRWLLHDYWGQGTTLTVSS
# VL: DIQMTQSPASLSISVGETVTITCRASENIYSNLAWYQQKQGKSPQLLVYGTKNLAEGVPSRFSGSGSGTQYSLKINSLQSEDFGNYYCQHFWGTPYTFGGGTKLEILR
# notes: as for B1
# B16: F1.153.1 (antibody, human IgG1, kappa, V domains shown)
# VH: QIQLVQSGPELKKPGETVKISCKASGYTFTTAGMQWVQKMPGKGFKWIGWINTHSGEPQYAEDFKGRFAFSLETSASTAYLQISNLKNEDTATYFCARSFYYHGSSFFYFDYWGQGTTLTVSS
# VL: DIVMTQSQKFMSTTVGDRVSITCKASQNVGTAVAWYQQKPGQSPKLLIYSASNRYTGVPDRFTGSGSGADFTLTISNMQSEDLADYFCQQYSRYPLTFGAGTKLELKR
# notes: as for B1
# Biological target: T1, polypeptide GC3pep
# Test: ELISA, GC3pep coated, antibody 100 nM;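 also: detection with an HRP-conjugated secondary antibody and TMB substrate, color reaction stopped with HCl before absorbance reading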
# Experimental: (§1) The plate was sealed with a plastic film and incubated at 4° C. overnight, washed twice with PBS the next day, and a blocking solution [PBS+2% (w/w) BSA] was added for blocking at room temperature for 2 h. […] After incubation at 37° C. for 2 h, the plate was washed 3 times with PBS. A horseradish peroxidase (HRP)-labeled secondary antibody (purchased from Merck, Cat. No. AP113P) was added for incubation at 37° C. for 1 h, and the plate was washed 5 times with PBS. A TMB substrate was added at 50 μL/well for incubation at room temperature for 10 min, then a stop solution (1.0M HCl) was added at 50 μL/well.
row,Binder,OD450 nm [OD450 nm]
1,B1,0.08
2,B2,2.73
3,B3,2.73
4,B4,2.63
5,B5,3.22
6,B6,0.08
7,B7,0.08
8,B8,0.06
9,B9,0.13
10,B10,3.03
11,B11,2.51
12,B12,2.41
13,B13,2.58
14,B14,2.85
15,B15,0.13
16,B16,0.11

# Biological target: T1, polypeptide GC3pep
# Test: ELISA, GC3pep coated, antibody 1 nM;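 also: bound antibody detected with an HRP-conjugated secondary antibody and TMB substrate, reaction stopped with HCl, after 2 h binding at 37 °C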
# Experimental: as §1
row,Binder,OD450 nm [OD450 nm]
1,B1,0.06
2,B2,2.29
3,B3,2.36
4,B4,2.18
5,B5,2.57
6,B6,0.04
7,B7,0.04
8,B8,0.04
9,B9,0.05
10,B10,2.64
11,B11,2.12
12,B12,1.92
13,B13,2.21
14,B14,2.41
15,B15,0.05
16,B16,0.04

# Biological target: T1, polypeptide GC3pep
# Test: ELISA, GC3pep coated, antibody 10 nM;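 also: antibody bound to the coated peptide for 2 h at 37 °C, detected through an HRP-conjugated secondary antibody with TMB colour development stopped by acid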
# Experimental: as §1
row,Binder,OD450 nm [OD450 nm]
1,B1,0.06
2,B2,2.42
3,B3,2.38
4,B4,2.43
5,B5,2.83
6,B6,0.04
7,B7,0.06
8,B8,0.05
9,B9,0.07
10,B10,2.8
11,B11,2.42
12,B12,2.28
13,B13,2.38
14,B14,2.51
15,B15,0.06
16,B16,0.05

# Biological target: T1, polypeptide GC3pep
# Test: ELISA, GC3pep coated, antibody 0.1 nM;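 also: antibody allowed to bind the coated plate 2 h at 37 °C, then detected via HRP-conjugated secondary antibody and TMB development for 10 min, stopped with HCl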
# Experimental: as §1
row,Binder,OD450 nm [OD450 nm]
1,B1,0.04
2,B2,1.13
3,B3,1.25
4,B4,1.53
5,B5,1.01
6,B6,0.04
7,B7,0.04
8,B8,0.04
9,B9,0.05
10,B10,1.63
11,B11,1.38
12,B12,0.85
13,B13,1.35
14,B14,1.34
15,B15,0.05
16,B16,0.05

# Biological target: T1, polypeptide GC3pep
# Test: ELISA, GC3pep coated, antibody 0.0001 nM
row,Binder,OD450 nm [OD450 nm]
1,B1,0.05
2,B2,0.05
3,B3,0.05
4,B4,0.05
5,B5,0.05
6,B6,0.05
7,B7,0.05
8,B8,0.05
9,B9,0.05
10,B10,0.07
11,B11,0.07
12,B12,0.05
13,B13,0.05
14,B14,0.05
15,B15,0.07
16,B16,0.06

# Biological target: T1, polypeptide GC3pep
# Test: ELISA, GC3pep coated, antibody 0.01 nM;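 also: bound antibody detected with an HRP-conjugated secondary antibody and TMB substrate, color reaction stopped with HCl before reading absorbance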
# Experimental: as §1
row,Binder,OD450 nm [OD450 nm]
1,B1,0.05
2,B2,0.2
3,B3,0.24
4,B4,0.35
5,B5,0.19
6,B6,0.04
7,B7,0.04
8,B8,0.04
9,B9,0.05
10,B10,0.33
11,B11,0.3
12,B12,0.15
13,B13,0.32
14,B14,0.26
15,B15,0.05
16,B16,0.04

# Biological target: T1, polypeptide GC3pep
# Test: ELISA, GC3pep coated, antibody 0.001 nM
row,Binder,OD450 nm [OD450 nm]
1,B1,0.07
2,B2,0.06
3,B3,0.06
4,B4,0.09
5,B5,0.06
6,B6,0.04
7,B7,0.04
8,B8,0.04
9,B9,0.05
10,B10,0.09
11,B11,0.1
12,B12,0.07
13,B13,0.09
14,B14,0.07
15,B15,0.05
16,B16,0.05
